Test system: K4 kissing-loop RNA reporter
Assay: apparent KD of K4 kissing-loop reporter; higher = weaker reporter binding
Conditions: Eterna round: R107
Protocol: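 RNA-MaP round R107: designed RNA switches with theophylline, tryptophan, arginine or FMN aptamers are transcribed on-chip within common flanks. They are titrated with a labelled K4 kissing-loop RNA reporter in RNA-MaP buffer (100 mM Tris pH 7.5, 80 mM KCl, 4 mM MgCl2), without ligand or with the indicated ligand. Median apparent KD per design.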

[1] = input ligand: theophylline 20 uM
[2] = input ligand: tryptophan 2.4 mM
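Also: bound reporter read as fluorescence of individual clusters on recovered sequencing chips by microscopy, with normalized cluster intensities fitted with a binding model.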

Row | Sequence | apparent KD of K4 kissing-loop reporter (input ligand: FMN 200 uM) [nM] | apparent KD of K4 kissing-loop reporter (input ligand: arginine 13.2 mM) [nM] | apparent KD of K4 kissing-loop reporter (input ligand: none) [nM] | apparent KD of K4 kissing-loop reporter [1] [nM] | apparent KD of K4 kissing-loop reporter [2] [nM]
1 | AUGUAUGAAUUAGGAUAUCGUUAGCCUUGCAUAUAUAUGAUAAAUGGAUAUGUCGUAGUGAUGUUACGAGAAGGAGUGUGGAGUA [KL-XFMN-B5] | 44.6 | 50.5 | 38.9 | 63.4 | 30.2
2 | CGAAAUAGAACGGCCGCCACUGUAAGUCCUGACAGUAAGUGAUGUUUGAAAGAUUCGGGUAUUCGCAGGACCGGGUUCGUCAUAA [theeternabot_sameState_KL_Trp_B_13] | 886 | 844 | 1260 | 759 | 754
3 | CCCAAAAUAUGCAGUGAUGUUGCAACUGAUACCAGUAUCGAAAGAUACCCUUGGCAGCGGAAAACCGCUACGUAAUUUAAAAGGG [Ex Theophylline A K4 18] | 200 | 292 | 255 | 340 | 187
4 | UGGAUAUAGUGAUGUUAUAUAGAGAUGGAUACCAGUUGAGAGAAUAGCCCUUGGCAGCCGAAAGAAGUAUCAUUAGAGAAGAAUG [ExTheophyl.Ak] | 269 | 200 | 230 | 219 | 173
5 | UUGCAAGAGUCGGCCGCCACUCCGGGCCCUAUAAAUGGGCGCAGUGAUGUUGCGGCUAGGCCUCUGAGGACCGGGACUUUGUAGC [Ateusraor] | 51 | 55.4 | 78.5 | 82.9 | 111
6 | GGGCAUGUUAAAGGAUAUAGCAGGUGAUACAAGAAAGUGAGUGAUGUUUAUGUAGAUGAUGAUAUGUUAGAAGGUUAACAAAACC [abcdefghijklm] | 597 | 475 | 620 | 529 | 374
7 | CAUAUACAAGUGAUGUUUGUACUAACCGAAGGAGCGUCGUUGAAGACAGGUAGGUCGCGGUUUAAGUUAGAUUAUAUAAUUCCAC [JR_Nu_SSArginiA_Sub027] | 705 | 535 | 892 | 715 | 509
8 | UGCAUGCGUAGAGUGAUGUUCUAAGAUGAUACCAGUGCGGAAACGCACCCUUGGCAGCAUCUGACUGCAUGCACGUCGAAAGACG | 718 | 666 | 826 | 399 | 598
9 | UCAUAUACCAGAAGGAGCGUGCAGGACGAAUUAAUCAUCGACCUUAGUGAUGUUAAGGACGCACAGGUAGGUCGCUGGUAUAUGA [Arg B SS t4] | 444 | 431 | 479 | 484 | 439
10 | UGAUACCAGACGGCCGCCACUGCACCAGUCAAUGACUGAGCGCGGUGGCGCUCAGUGAUGUUGAGCAGGACCGGGUCUGGUAUCU [Mod of Eli's TrypBX 8 v4] | 147 | 117 | 136 | 145 | 93.9
11 | AGAGUUAUGCGAGGAUAUGCAGUUAGUACUCAAAGAGUACUAACAGCAGAGUGAUGUUCUGUGAAAGCAGAAGGUGCAUAACUCA [Omei KL FMN B SS B v7] | 153 | 630 | 1120 | 641 | 671
12 | GAUGCAUAUUCCUGGAGGAAGAUGGUUAAGAAGGAUAUCAAAGCCGUGAGAAGGUCUAAACCUAAUAGUCGAGUGAUGUUCGACC [theeternabot_sameState_KL_FMN_A_35] | 231 | 309 | 356 | 428 | 278
13 | GGUAGCAUGGCGGCCGCCACUUCGAAUAAGUGAUGUUUAUUUGACUGAGCACCCUAUGCCAUGUGAAGGACCGGGCCAUGCUACC | 147 | 138 | 157 | 208 | 200
14 | GGAUCGCAUGGCGAAAAGCCAUGCGAUCCACGAGGACCGGUACGGCCGCCACUCGCCGGAGUGAUGUUCCGCUACAGAUCUUAAA | 187 | 121 | 256 | 144 | 301
15 | UGUCAUUGGUCGGCCGCCACUUCAUAAAGAGUGAUGUUCUAAAAGACGGAUCGAAAGAUCUGUCGAAGGACCGGGACCGAUGACU [TrypBS 18 #SwitchBubble #StaticStem] | 1410 | 641 | 1200 | 915 | 279
16 | UAAUCCUAGUGAUCCUUAUCAAGUGGUGGGCGAGGACCGGUACGGCCGCCACUCGAAUAUGCAGUGAUGUUGUAAUCCGGAUAAU [Exclusion - Tryptophan A (Freestyle 9)] | 568 | 741 | 919 | 750 | 440
17 | CCUAUCUCAUACGAUACCAGUGAAUUAAUAUUUAUAAGCAGUGAUGUUGCAUUCCAAGUACACCCUUGGCAGCGUAUGGGAUAGG [Ex Theophylline B K4 20] | 147 | 151 | 151 | 159 | 120
18 | UACCCGUGCUACUCCAUCCAUGCCACACCGCGAGGACCGGUACGGCCGCCACUCGUCGGAAAGUGAUGUUUUCAAACAAAGUUGC | 151 | 93.4 | 142 | 292 | 76.9
19 | AAUAACUAGUAUUUUUUUAAUAAUACAGAUACCAGUGAUAAUAAACACCCUUGGCAGCUGAUCGAGUGAUGUUCGUUUAUUUUAA [JR_SSTheophyA_Sub003] | 57.3 | 83.3 | 64 | 112 | 54
20 | AAAUUCUUUUUUUUAUUUAACUUUUCAGAAGGAGCGUGGUAGUACACAGGUAGGUCGCUGAAUUUUGGACUAGUGAUGUUAGUUA [JR_SSArginiA_Sub007] | 156 | 154 | 158 | 228 | 153
21 | AAGAGAUCGAGAAGGAGCGAGAAAGCUAGUACAUAUGUACUAGCAAAGCAGUGAUGUUGCACUCAGGUAGGUCGCUCGAUCUCAA [AK1 SS Arginine B] | 395 | 299 | 432 | 335 | 314
22 | ACGGAGUGAUGUUCCGGCCUCCCAGCAGAUACCAGCAGUCGCGAUUGCCCUUGGCAGCUGUCCGCGGCAUCCACUUGUAGCGGUA [theeternabot_exclusion_KL_Theo_A_12] | 223 | 173 | 204 | 222 | 197
